Earlier results on 1 substance are cited in PMC10330345.

As usually defined, the pKd is −log10 of the Kd, conventionally taken in molar units.

pKd: −log10 of the molar value.

This data set addresses BTN3A1 272-513 (Homo sapiens) (UniProt O00481). Description: ITC. For orientation: Isothermal titration calorimetry measures the heat released or taken up as one component is titrated into another.

Sequence of BTN3A1 272-513 (Homo sapiens) (O00481 272-513): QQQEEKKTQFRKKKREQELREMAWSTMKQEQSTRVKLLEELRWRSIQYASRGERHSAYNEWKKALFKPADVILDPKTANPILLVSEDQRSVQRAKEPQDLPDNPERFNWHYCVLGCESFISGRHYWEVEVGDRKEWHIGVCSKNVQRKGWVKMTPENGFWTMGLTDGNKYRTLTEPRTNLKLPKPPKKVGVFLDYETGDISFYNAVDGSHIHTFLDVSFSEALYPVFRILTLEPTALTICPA

For the substance BTN2A1 271-527 (from UniProt Q7KYR7), the pKd is 6.05.
